Target: recombinant H2AK119Ub mono-nucleosomes (UniProt P04908)
Assay: AlphaScreen or HTRF; Alphalisa: GST-SSX or GST-SSXdel7aa titrated against 10nM biotinylated nucleosomes; EC50 by nonlinear regression

Chain of GST-SSX1 (78aa) (Q16384 111-188): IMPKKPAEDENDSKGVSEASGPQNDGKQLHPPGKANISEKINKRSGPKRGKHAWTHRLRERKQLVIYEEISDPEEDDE

fold difference (Ub/unmod) by AlphaLisa: 4.8 fold
Substance: GST-SSX1 (78aa) (from UniProt Q16384 111-188) (domain or fragment)
